Source: article PMC5095173, “Disulfide-activated protein kinase G Iα regulates cardiac diastolic relaxation and fine-tunes the Frank–Starling response” (Nature Communications, 2016)

B1: Atp5a1 pS184 (protein, UniProt P15999 44-553, looked up)
ATP synthase F(1) complex …: QKTGTAEMSSILEERILGADTSVDLEETGRVLSIGDGIARVHGLRNVQAEEMVEFSSGLKGMSLNLEPDNVGVVVFGNDKLIKEGDIVKRTGAIVDVPVGDELLGRVVDALGNAIDGKGPVGSKIRRRVGLKAPGIIPRISVREPMQTGIKAVDSLVPIGRGQRELIIGDRQTGKTSIAIDTIINQKRFNDGTDEKKKLYCIYVAIGQKRSTVAQLVKRLTDADAMKYTIVVSATASDAAPLQYLAPYSGCSMGEYFRDNGKHALIIYDDLSKQAVAYRQMSLLLRRPPGREAYPGDVFYLHSRLLERAAKMNDSFGGGSLTALPVIETQAGDVSAYIPTNVISITDGQIFLETELFYKGIRPAINVGLSVSRVGSAAQTRAMKQVAGTMKLELAQYREVAAFAQFGSDLDAATQQLLSRGVRLTELLKQGQYSPMAIEEQVAVIYAGVRGYLDKLEPSKITKFESAFLSHVVSQHQSLLGNIRSDGKISEQSDAKLKEIVTNFLAGFEP
modifications: phosphorylated at S184
B2: Atp5a1 pS76 (protein, UniProt P15999 44-553, looked up)
ATP synthase F(1) complex …: B1 ATP synthase F(1) complex …
modifications: phosphorylated at S76
B3: Clasp2 pS436 (protein, UniProt Q99JD4 1-1286, looked up)
CLIP-associating protein 2: MRRLICKRICDYKSFDDEESVDGNRPSSAASAFKVPAPKTPGNPVNSARKPGSAGGPKAGGTSKEGGAGAVDEDDFIKAFTDVPSIQIYSSRELEETLNKIREILSDDKHDWDQRANALKKIRSLLVAGAAQYDCFFQHLRLLDGALKLSAKDLRSQVVREACITVAHLSTVLGNKFDHGAEAIVPTLFNLVPNSAKVMATSGCAAIRFIIRHTHVPRLIPLITSNCTSKSVPVRRRSFEFLDLLLQEWQTHSLERHAAVLVETIKKGIHDADAEARVEARKTYMGLRNHFPGEAETLYNSLEPSYQKSLQTYLKSSGSVASLPQSDRSSSSSQESLNRPFSSKWSTANPSAVAGRVSVGGSKASPLPGSLQRSRSDIDVNAAAGAKAHHAAGQAVRSGRLGAGALNPGSYASLEDTSDKMDGTASEDGRVRAKLSTPLVAVGNAKTDSRGRSRTKMVSQSQPGSRSGSPGRVLTTTALSTVSSGAQRILVNSASAQKRSKIPRSQGCSREASPSRLSVARSSRIPRPSVSQGCSREASRESSRDTSPVRSFQPLGPGYGMSQSSRLSSSVSAMRVLNTGSDVEEAVADALLLGDIRTKKKPARRRYESYGMHSDDDANSDASSACSERSYSSRNGSIPTYMRQTEDVAEVLNRCASSNWSERKEGLLGLQNLLKNQRTLSRVELKRLCEIFTRMFADPHGKVFSMFLETLVDFIQVHKDDLQDWLFVLLTQLLKKMGADLLGSVQAKVQKALDVTRESFPNDLQFNILMRFTVDQTQTPSLKVKVAILKYIETLAKQMDPGDFINSSETRLAVSRVITWTTEPKSSDVRKAAQSVLISLFELNTPEFTMLLGALPKTFQDGATKLLHNHLRNTGNGTQSSMGSPLTRPTPRSPANWSSPLTSPTNTSQNTLSPSAFDYDTENMNSEDIYSSLRGVTEAIQNFSFRSQEDMSEPLKRDPKKEDGDTVCSGPGMSDPRAGGDAPDSSQPALDNKASLLHSVPLHSSPRSRDYNPYNYSDSISPFNKSALKEAMFDDDADQFPDDLSLDHSDLVAELLKELSNHNERIEERKIALYELMKLTQEESFSVWDEHFKTILLLLLETLGDKEPTIRALALKVLKEILRHQPARFKNYAELTVMKTLEAHKDPHKEVVRSAEEAASVLATSISPEQCIKVLCPIIQTADYPINLAAIKMQTKVIERVSKETLNLLLPEIMPGLIQGYDNSESSVRKACVFCLVAVHAVIGDELKPHLSQLTGSKMKLLNLYIKRAQTGSAGADPTTDVSGQS
modifications: phosphorylated at S436
B4: Lrpap1 pS245 (protein, UniProt Q99068 34-360, looked up)
Alpha-2-macroglobulin …: HGGKYSREKNEPEMAAKRESGEEFRMEKLNQLWEKAKRLHLSPVRLAELHSDLKIQERDELNWKKLKVEGLDGDGEKEAKLVHNLNVILARYGLDGRKDTQTVHSNALNEDTQDELGDPRLEKLWHKAKTSGKFSSEELDKLWREFLHYKEKIHEYNVLLDTLSRAEEGYENLLSPSDMTHIKSDTLASKHSELKDRLRSINQGLDRLRKVSHQGYGPATEFEEPRVIDLWDLAQSANFTEKELESFREELKHFEAKIEKHNHYQKQLEISHQKLKHVESIGDPEHISRNKEKYVLLEEKTKELGYKVKKHLQDLSSRVSRARHNEL
modifications: phosphorylated at S245

Tests used:
[1] = system: PKGIα (analogue-sensitive C42S/M438G), cGMP-activated; test: Chemical genetic phosphoproteomic screen, cGMP-activated PKGIα C42S/M438G versus unactivated control; type: biochemical, human PKGIα; substrates in rat heart homogenate; settings: control = PKGIα C42S/M438G
In short: (§1)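 Analogue-sensitive human PKGIα mutants (M438G, air-oxidized to disulfide dimer; C42S/M438G, cGMP-activated), expressed in 293-F cells, thiophosphorylate substrates in rat left-ventricle lysate (20 mg ml) using N6-alkylated ATPγS. Thiophosphopeptides are recovered by covalent capture and identified with sites by LC–MS/MS, each compared against an unactivated control.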

[2] = system: PKGIα (analogue-sensitive M438G), disulfide-activated; test: Chemical genetic phosphoproteomic screen, disulfide-activated PKGIα M438G versus unactivated control; type: biochemical, human PKGIα; substrates in rat heart homogenate; settings: control = PKGIα C42S/M438G
In short: as §1

Row | Molecule | log2 fold change cGMP vs Control [1] | log2 fold change Disulfide vs Control [2]
1 | B1 | 3.438 | 1.986
2 | B2 | 2.023 | 1.372
3 | B3 | 1.792 | 0.8616
4 | B4 | 2.6435 | 0.3181
